What is called stoichiometry N is a count of units in the complex or per binding partner.

The target of assay [1] is T1, pCRY-PHR (plant cryptochrome pCRY, PHR domain) (Chlamydomonas reinhardtii, UniProt Q42696, D393S).
T1 construct: gene CPH1; PHR domain, amino acids 1-504, N-terminal His6 and C-terminal StrepII tags (printed for D393S), E. coli BL21(DE3), pET-28a(+); theoretical mass 59 kDa, wild type monomeric in the dark
As to the kind of experiment: UV-vis absorbance and time-resolved UV-vis difference spectroscopy of purified protein. Type of assay: binding. The settings on record: 50 mM phosphate pH 7.8, 100 mM NaCl, 3 mM ATP, 1% glycerol, 10 °C, with or without 2 mM DTT; co-purified chromophore; time-resolved spectra at 13 °C without DTT.

Assay [2] addresses pCRY-PHR D393S (amino acids 1-504) (Chlamydomonas reinhardtii). As to the kind of experiment: SEC; Superdex 200 Increase 10/300 GL, under light exclusion at 4 °C, 50 mM Tris pH 7.8, 100 mM NaCl, 1 mM ATP, 1 mM MgCl2; samples at OD450 = 1; apparent masses from calibration. (SEC sorts molecules by how far they enter the pores of the column.)
Assay [3] concerns the target Region II mutations (V367M, K368E, Y399S, S401F, P405L) placed in the CRY2PHR background. As to the kind of experiment: two-hybrid; BD-CRY2PHR (1-498) variants and AD-CIB1, AH109 x Y187, beta-galactosidase reporter (Miller Units, ONPG), dark for 2 h.
The target of assay [4] is T2, CRY2PHR (residues 1-498 of CRY2, lacking the CCE), Gal4BD fusion, wild type (Arabidopsis thaliana, UniProt Q96524 1-498).
T2 construct: Cryptochrome 2 (CRY2), Arabidopsis thaliana, photolyase homology region, residues 1-498; also called BD-CRY2PHR; pDBTrp-CRY2PHR; source: yeast two-hybrid fusion (AH109 x Y187)
T2 sequence (Q96524 1-498): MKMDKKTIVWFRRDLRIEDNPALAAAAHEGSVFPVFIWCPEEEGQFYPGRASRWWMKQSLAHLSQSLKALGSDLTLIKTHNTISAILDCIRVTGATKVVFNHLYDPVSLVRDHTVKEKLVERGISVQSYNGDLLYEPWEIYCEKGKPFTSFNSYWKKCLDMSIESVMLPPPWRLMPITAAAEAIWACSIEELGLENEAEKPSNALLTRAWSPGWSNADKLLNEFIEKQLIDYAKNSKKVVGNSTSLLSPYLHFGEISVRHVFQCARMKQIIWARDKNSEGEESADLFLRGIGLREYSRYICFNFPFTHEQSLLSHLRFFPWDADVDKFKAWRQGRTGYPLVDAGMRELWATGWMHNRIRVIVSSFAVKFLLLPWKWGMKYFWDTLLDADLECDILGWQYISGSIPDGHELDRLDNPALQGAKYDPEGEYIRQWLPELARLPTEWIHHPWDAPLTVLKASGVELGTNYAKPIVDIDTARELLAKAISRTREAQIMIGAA
As to the kind of experiment: two-hybrid; BD-CRY2PHR (1-498) variants and AD-CIB1, AH109 x Y187, beta-galactosidase reporter (Miller Units, ONPG), light for 2 h. The conditions noted are these: partners not purified.

T1 sequence (Q42696 entry or part of it D393S): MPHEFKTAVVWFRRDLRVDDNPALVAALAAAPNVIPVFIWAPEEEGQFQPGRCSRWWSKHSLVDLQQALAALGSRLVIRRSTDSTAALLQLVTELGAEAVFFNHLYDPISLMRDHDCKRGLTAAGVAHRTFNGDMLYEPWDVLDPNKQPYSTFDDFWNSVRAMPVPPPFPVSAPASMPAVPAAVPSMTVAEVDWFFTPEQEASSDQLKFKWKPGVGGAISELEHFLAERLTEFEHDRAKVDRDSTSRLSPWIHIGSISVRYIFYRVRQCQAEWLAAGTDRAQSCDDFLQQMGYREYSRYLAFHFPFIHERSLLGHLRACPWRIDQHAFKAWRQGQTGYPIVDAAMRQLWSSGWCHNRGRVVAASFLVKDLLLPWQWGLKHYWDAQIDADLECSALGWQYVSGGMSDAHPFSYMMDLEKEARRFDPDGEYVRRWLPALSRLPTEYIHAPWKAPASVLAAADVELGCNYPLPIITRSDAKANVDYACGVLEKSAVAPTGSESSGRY

Regarding `Cc1cc2nc3c(=O)[nH]c(=O)nc-3n(C[C@H](O)[C@H](O)[C@H](O)COP(=O)(O)OP(=O)(O)OC[C@H]3O[C@@H](n4cnc5c(N)ncnc54)[C@H](O)[C@@H]3O)c2cc1C` [FAD], in assay [1], the “UV-vis absorbance and time-resolved UV-vis difference spectroscopy of purified p” value was “The D393S mutant forms homomers in the dark with oxidized FAD bound”.
Take “pCRY-PHR D393S (amino acids 1-504) (domain or fragment)”: the stoichiometry N in assay [2] was determined as 2.

B1: CRYPTOCHROME-… BASIC-HELIX-LOOP-HELIX 1 (CIB1), Gal4AD fusion (natural protein)
chain: MNGAIGGDLLLNFPDMSVLERQRAHLKYLNPTFDSPLAGFFADSSMITGGEMDSYLSTAGLNLPMMYGETTVEGDSRLSISPETTLGTGNFKKRKFDTETKDCNEKKKKMTMNRDDLVEEGEEEKSKITEQNNGSTKSIKKMKHKAKKEENNFSNDSSKVTKELEKTDYIHVRARRGQATDSHSIAERVRREKISERMKFLQDLVPGCDKITGKAGMLDEIINYVQSLQRQIEFLSMKLAIVNPRPDFDMDDIFAKEVASTPMTVVPSPEMVLSGYSHEMVHSGYSSEMVNSGYLHVNPMQQVNTSSDPLSCFNNGEAPSMWDSHVQNLYGNLGV
B1 showed a fold higher basal (dark) interaction than wild-type CRY2PHR (beta-galactosidase reporter) in assay [3] of 4 to 7 fold.

B2: CRYPTOCHROME-INTERACTING BASIC-HELIX-LOOP-HELIX 1 (CIB1), Gal4AD fusion (natural protein, Arabidopsis thaliana, UniProt Q8GY61 1-335, looked up)
chain: MNGAIGGDLLLNFPDMSVLERQRAHLKYLNPTFDSPLAGFFADSSMITGGEMDSYLSTAGLNLPMMYGETTVEGDSRLSISPETTLGTGNFKKRKFDTETKDCNEKKKKMTMNRDDLVEEGEEEKSKITEQNNGSTKSIKKMKHKAKKEENNFSNDSSKVTKELEKTDYIHVRARRGQATDSHSIAERVRREKISERMKFLQDLVPGCDKITGKAGMLDEIINYVQSLQRQIEFLSMKLAIVNPRPDFDMDDIFAKEVASTPMTVVPSPEMVLSGYSHEMVHSGYSSEMVNSGYLHVNPMQQVNTSSDPLSCFNNGEAPSMWDSHVQNLYGNLGV
notes: CIB1, transcription factor, Arabidopsis thaliana; also called GalAD-CIB1; Gal4AD-CIB1; source: yeast two-hybrid fusion (MaV203; Y187, mated to AH109)
B2: the “fold increase of interaction (beta-galactosidase reporter) in light over dark” value in assay [4] was determined as 4 fold.

The record behind these values is PMC12212125, “Constitutively active Arabidopsis cryptochrome two alleles identified using yeast selection and deep mutational scanning” (The Journal of Biological Chemistry, 2025).
